Here are results for 14 molecules from patent publication US20110118181A1 (INSTITUT DE RECHERHES CLINIQUES DE MONTREAL, published 2011).

This test has as its target T1, PCSK9-V5 (full-length human PCSK9 with C-terminal V5 tag) (human, UniProt Q8NBP7 31-692).
T1 construct: Used as conditioned medium of CHO-K1 cells (Far Western, pull-down) or co-expressed in cells (co-IP); The background says PCSK9 is secreted as a prosegment-PCSK9 heterodimer; also called full-length (FL) PCSK9-V5; native PCSK9; not shown: C-terminal V5 tag
As to the kind of experiment: Far Western blot of HEK293 lysates.

Changes are numbered by the printed parent chain. In names and notes the source's numbering stands.

T1 sequence (Q8NBP7 31-692 limits assumed): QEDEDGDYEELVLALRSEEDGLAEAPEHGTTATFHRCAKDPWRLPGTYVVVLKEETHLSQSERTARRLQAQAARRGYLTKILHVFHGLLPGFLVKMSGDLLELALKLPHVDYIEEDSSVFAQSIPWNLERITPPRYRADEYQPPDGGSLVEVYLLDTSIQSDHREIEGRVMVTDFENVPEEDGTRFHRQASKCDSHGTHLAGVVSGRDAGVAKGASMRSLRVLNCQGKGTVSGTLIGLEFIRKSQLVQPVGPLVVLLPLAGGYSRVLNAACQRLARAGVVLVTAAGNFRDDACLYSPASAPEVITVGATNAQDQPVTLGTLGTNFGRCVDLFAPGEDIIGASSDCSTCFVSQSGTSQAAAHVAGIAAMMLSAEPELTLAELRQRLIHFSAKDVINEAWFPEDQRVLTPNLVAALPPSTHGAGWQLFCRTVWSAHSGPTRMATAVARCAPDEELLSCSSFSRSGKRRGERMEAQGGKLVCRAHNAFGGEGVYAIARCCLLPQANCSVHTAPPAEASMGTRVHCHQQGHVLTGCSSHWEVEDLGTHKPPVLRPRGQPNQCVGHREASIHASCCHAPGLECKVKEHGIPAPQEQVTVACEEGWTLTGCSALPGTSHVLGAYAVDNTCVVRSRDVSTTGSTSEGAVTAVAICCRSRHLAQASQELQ

B1: AnxA2 77RRTKK>AATAA (HA-tagged) (other)
chain: MSTVHEILCKLSLEGDHSTPPSAYGSVKAYTNFDAERDALNIETAIKTKGVDEVTIVNILTNRSNAQRQDIAFAYQAATAAELASALKSALSGHLETVILGLLKTPAQYDASELKASMKGLGTDEDSLIEIICSRTNQELQEINRVYKEMYKTDLEKDIISDTSGDFRKLMVALAKGRRAEDGSVIDYELIDQDARDLYDAGVKRKGTDVPKWISIMTERSVPHLQKVFDRYKSYSPYDMLESIRKEVKGDLENAFLNLVQCIQNKPLYFADRLYDSMKGKGTRDKVLIRIMVSRSEVDMLKIRSEFKRKYGKSLYYYIQQDTKGDYQKALLYLCGGDDYPYDVPDYA
notes: also called 77AATAA81
For the molecule B1, the binding result is recorded as “no binding”.

B2: AnxA2 K28S+D34N+E36S (HA-tagged) (other)
chain: B1 chain with K28S, D34N, E36S, A77R, A78R, A80K, A81K
In the case of B2, the binding result is “binds”.

B3: AnxA2 80KKELA>GKPLD (HA-tagged) (other)
chain: B1 chain with A77R, A78R, A80G, A81K, E82P, A84D
notes: also called 80KKELA84 replaced with AnxA1 loop 89GKPLD93
As to B3, the binding result is recorded as “binds”.

B4: AnxA2 Δ25-36-HA (other)
chain: MSTVHEILCKLSLEGDHSTPPSAYRDALNIETAIKTKGVDEVTIVNILTNRSNAQRQDIAFAYQRRTKKELASALKSALSGHLETVILGLLKTPAQYDASELKASMKGLGTDEDSLIEIICSRTNQELQEINRVYKEMYKTDLEKDIISDTSGDFRKLMVALAKGRRAEDGSVIDYELIDQDARDLYDAGVKRKGTDVPKWISIMTERSVPHLQKVFDRYKSYSPYDMLESIRKEVKGDLENAFLNLVQCIQNKPLYFADRLYDSMKGKGTRDKVLIRIMVSRSEVDMLKIRSEFKRKYGKSLYYYIQQDTKGDYQKALLYLCGGDDYPYDVPDYA
Take B4: the binding result was “no binding”.

B5: AnxA2 Δ82-88-HA (other)
chain: MSTVHEILCKLSLEGDHSTPPSAYGSVKAYTNFDAERDALNIETAIKTKGVDEVTIVNILTNRSNAQRQDIAFAYQRRTKKSALSGHLETVILGLLKTPAQYDASELKASMKGLGTDEDSLIEIICSRTNQELQEINRVYKEMYKTDLEKDIISDTSGDFRKLMVALAKGRRAEDGSVIDYELIDQDARDLYDAGVKRKGTDVPKWISIMTERSVPHLQKVFDRYKSYSPYDMLESIRKEVKGDLENAFLNLVQCIQNKPLYFADRLYDSMKGKGTRDKVLIRIMVSRSEVDMLKIRSEFKRKYGKSLYYYIQQDTKGDYQKALLYLCGGDDYPYDVPDYA
On to B5, for which the binding result is “no binding”.

B6: AnxA2 Δ62-75-HA (other)
chain: MSTVHEILCKLSLEGDHSTPPSAYGSVKAYTNFDAERDALNIETAIKTKGVDEVTIVNILTQRRTKKELASALKSALSGHLETVILGLLKTPAQYDASELKASMKGLGTDEDSLIEIICSRTNQELQEINRVYKEMYKTDLEKDIISDTSGDFRKLMVALAKGRRAEDGSVIDYELIDQDARDLYDAGVKRKGTDVPKWISIMTERSVPHLQKVFDRYKSYSPYDMLESIRKEVKGDLENAFLNLVQCIQNKPLYFADRLYDSMKGKGTRDKVLIRIMVSRSEVDMLKIRSEFKRKYGKSLYYYIQQDTKGDYQKALLYLCGGDDYPYDVPDYA
As to B6, the binding result was “no binding”.

B7: AnxA2 77RRTKK>AATAK (HA-tagged) (other)
chain: B1 chain with A81K
notes: also called 77AATAK81
Consider B7, for which the binding result is “no binding”.

B8: AnxA2 Δ37-66-HA (other)
chain: MSTVHEILCKLSLEGDHSTPPSAYGSVKAYTNFDAEQRQDIAFAYQRRTKKELASALKSALSGHLETVILGLLKTPAQYDASELKASMKGLGTDEDSLIEIICSRTNQELQEINRVYKEMYKTDLEKDIISDTSGDFRKLMVALAKGRRAEDGSVIDYELIDQDARDLYDAGVKRKGTDVPKWISIMTERSVPHLQKVFDRYKSYSPYDMLESIRKEVKGDLENAFLNLVQCIQNKPLYFADRLYDSMKGKGTRDKVLIRIMVSRSEVDMLKIRSEFKRKYGKSLYYYIQQDTKGDYQKALLYLCGGDDYPYDVPDYA
B8: the binding result is recorded as “no binding”.

B9: AnxA2 Δ37-48-HA (other)
chain: MSTVHEILCKLSLEGDHSTPPSAYGSVKAYTNFDAEKGVDEVTIVNILTNRSNAQRQDIAFAYQRRTKKELASALKSALSGHLETVILGLLKTPAQYDASELKASMKGLGTDEDSLIEIICSRTNQELQEINRVYKEMYKTDLEKDIISDTSGDFRKLMVALAKGRRAEDGSVIDYELIDQDARDLYDAGVKRKGTDVPKWISIMTERSVPHLQKVFDRYKSYSPYDMLESIRKEVKGDLENAFLNLVQCIQNKPLYFADRLYDSMKGKGTRDKVLIRIMVSRSEVDMLKIRSEFKRKYGKSLYYYIQQDTKGDYQKALLYLCGGDDYPYDVPDYA
B9: the binding result is on record as “no binding”.

B10: AnxA2 77…>77AATAAELASALA (HA-tagged) (other)
chain: B1 chain with K88A
As to B10, the binding result is “no binding”.

B11: AnxA2 Δ49-61-HA (other)
chain: MSTVHEILCKLSLEGDHSTPPSAYGSVKAYTNFDAERDALNIETAIKTNRSNAQRQDIAFAYQRRTKKELASALKSALSGHLETVILGLLKTPAQYDASELKASMKGLGTDEDSLIEIICSRTNQELQEINRVYKEMYKTDLEKDIISDTSGDFRKLMVALAKGRRAEDGSVIDYELIDQDARDLYDAGVKRKGTDVPKWISIMTERSVPHLQKVFDRYKSYSPYDMLESIRKEVKGDLENAFLNLVQCIQNKPLYFADRLYDSMKGKGTRDKVLIRIMVSRSEVDMLKIRSEFKRKYGKSLYYYIQQDTKGDYQKALLYLCGGDDYPYDVPDYA
For B11, the binding result is “no binding”.

B12: AnxA2 Δ102-108-HA (other)
chain: MSTVHEILCKLSLEGDHSTPPSAYGSVKAYTNFDAERDALNIETAIKTKGVDEVTIVNILTNRSNAQRQDIAFAYQRRTKKELASALKSALSGHLETVILGYDASELKASMKGLGTDEDSLIEIICSRTNQELQEINRVYKEMYKTDLEKDIISDTSGDFRKLMVALAKGRRAEDGSVIDYELIDQDARDLYDAGVKRKGTDVPKWISIMTERSVPHLQKVFDRYKSYSPYDMLESIRKEVKGDLENAFLNLVQCIQNKPLYFADRLYDSMKGKGTRDKVLIRIMVSRSEVDMLKIRSEFKRKYGKSLYYYIQQDTKGDYQKALLYLCGGDDYPYDVPDYA
Take B12: the binding result is “no binding”.

B13: AnxA2 Δ74-88-HA (other)
chain: MSTVHEILCKLSLEGDHSTPPSAYGSVKAYTNFDAERDALNIETAIKTKGVDEVTIVNILTNRSNAQRQDIAFSALSGHLETVILGLLKTPAQYDASELKASMKGLGTDEDSLIEIICSRTNQELQEINRVYKEMYKTDLEKDIISDTSGDFRKLMVALAKGRRAEDGSVIDYELIDQDARDLYDAGVKRKGTDVPKWISIMTERSVPHLQKVFDRYKSYSPYDMLESIRKEVKGDLENAFLNLVQCIQNKPLYFADRLYDSMKGKGTRDKVLIRIMVSRSEVDMLKIRSEFKRKYGKSLYYYIQQDTKGDYQKALLYLCGGDDYPYDVPDYA
Consider B13, for which the binding result is “no binding”.

B14: AnxA2 Δ89-101-HA (other)
chain: MSTVHEILCKLSLEGDHSTPPSAYGSVKAYTNFDAERDALNIETAIKTKGVDEVTIVNILTNRSNAQRQDIAFAYQRRTKKELASALKLLKTPAQYDASELKASMKGLGTDEDSLIEIICSRTNQELQEINRVYKEMYKTDLEKDIISDTSGDFRKLMVALAKGRRAEDGSVIDYELIDQDARDLYDAGVKRKGTDVPKWISIMTERSVPHLQKVFDRYKSYSPYDMLESIRKEVKGDLENAFLNLVQCIQNKPLYFADRLYDSMKGKGTRDKVLIRIMVSRSEVDMLKIRSEFKRKYGKSLYYYIQQDTKGDYQKALLYLCGGDDYPYDVPDYA
On to B14, for which the binding result was “no binding”.
